Assay results published in patent US20230192801A1.

Target: membrane-associated human IR-A (plasma membranes of BHK cells stably transfected with human IR-A) (human) (UniProt P06213)
Assay: competition SPA, displacement of [125I-A14Y]-human insulin from membrane-associated human IR-A; affinity relative to human insulin standard

Row | Substance | hIRA mem (% rel to HI), relative binding affinity
1 | A9E, B3E, B26E, desB30 human insulin (ligand) | 55.8 % rel to HI
2 | A9E, B3E, B27E, B28E, desB30 human insulin (ligand) | 35.4 % rel to HI
